These results are taken from patent publication US20200317791A1 (published 2020).

This test addresses T1, peptide on HLA-C*06:02 (human).
T1 peptide: TRATKMQVI
Put plainly: activation reporter or marker.

B1: TCR-TRAT (TCR, V domains shown)
Valpha: GEDVEQSLFLSVREGDSSVINCTYTDSSSTYLYWYKQEPGAGLQLLTYIFSNMDMKQDQRLTVLLNKKDKHLSLRIADTQTGDSAIYFCAESSNLSGNTPLVFGKGTRLSVIA
Vbeta: AAGVIQSPRHLIKEKRETATLKCYPIPRHDTVYWYQQGPGQDPQFLISFYEKMQSDKGSIPDRFSAQQFSDYHSELNMSSLELGDSALYFCASGLAGITGELFFGEGSRLTVL
In the case of B1, the binding result is listed as “recognises”.
